In paper PMC8169943:

How the values were obtained:
[1] = target: AdeS full cytoplasmic domain (HAMP-DHp-CA) (Acinetobacter baumannii); test: SEC
[2] = target: AdeS full cytoplasmic domain (HAMP-DHp-CA) (Acinetobacter baumannii); test: SAXS
[3] = target: AdeS histidine kinase transmitter domain (DHp-CA) (Acinetobacter baumannii); test: SEC
[4] = target: AdeS histidine kinase transmitter domain (DHp-CA) (Acinetobacter baumannii); test: SAXS
purified protein = substrate: Nc1ncnc2c1ncn2[C@@H]1O[C@H](COP(=O)(O)OP(=O)(O)OP(=O)(O)O)[C@@H](O)[C@H]1O; test: purified protein; details: autophosphorylation; hexameric cytoplasmic domain

AdeS full cytoplasmic domain (HAMP-DHp-CA) (domain or fragment)
stoichiometry N [1]: 6 | stoichiometry N [2]: 6

AdeS histidine kinase transmitter domain (DHp-CA) (domain or fragment)
stoichiometry N [3]: 2 | stoichiometry N [4]: 2

B1: AdeS cytoplasmic domain (HAMP-DHp-CA) (Acinetobacter baumannii) (protein)
chain: KRFIVPINFLAEAAKKISHGDLSARAYDNRIHFAEMSELLYNFNDMAQKLEVSVKNAQVWNAAIAHELRTPITILQGRLQGIIDGVFKPDEVLFKSLLNQVEVLSHLVEDLRTLSLVENQQLRLNYELFDFKAVVEKVLKAFEDRLDQAKLVPELDLTSTPVYCDRRRIEQVLIALIDNAIRYSHAGKLKISSEVVSQNWILKIEDEGPGIATEFQDDLFKPFFRLEESRNKEFGGTGLGLAVVHAIIVALKGTIQYSNQGSKSIFTIKISMNN
Km (purified protein): 5.25 ± 0.20 µM
